Results from doi:10.1101/569459 (bioRxiv, 2019).
Positions count from the first letter of the chain named.

B1: GST::MKLP1_(620-858) (wild type) (domain or fragment, UniProt Q02241-2 620-856, looked up)
chain: ETTMKWEKECERRVAAKQLEMQNKLWVKDEKLKQLKAIVTEPKTEKPERPSRERDREKVTQRSVSPSPVPLLFQPDQNAPPIRLRHRRSRSAGDRWVDHKPASNMQTETVMQPHVPHAITVSVANEKALAKCEKYMLTHQELASDGEIETKLIKGDIYKTRGGGQSVQFTDIETLKQESPNGSRKRRSSTVAPAQPDGAESEWTDVETRCSVAVEMRAGSQLGPGYQHHAQPKRKKP
B2: GST::MKLP1_(620-858) AQA mutant (domain or fragment, UniProt Q02241-2 620-856, looked up)
chain: B1 chain with V167A, F169A

Biological target: MBP::PP1β (UniProt P62140 1-327)
Assay: pull-down

MBP::PP1β, sequence (P62140 whole entry): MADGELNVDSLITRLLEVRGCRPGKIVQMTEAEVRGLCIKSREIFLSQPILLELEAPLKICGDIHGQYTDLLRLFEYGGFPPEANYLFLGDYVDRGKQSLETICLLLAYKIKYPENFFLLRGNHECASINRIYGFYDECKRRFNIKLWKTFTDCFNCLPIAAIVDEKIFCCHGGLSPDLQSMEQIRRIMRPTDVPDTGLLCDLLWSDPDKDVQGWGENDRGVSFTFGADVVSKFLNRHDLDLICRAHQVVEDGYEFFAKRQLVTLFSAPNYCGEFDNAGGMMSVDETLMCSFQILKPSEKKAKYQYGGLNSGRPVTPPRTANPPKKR

| Binder | binding result |
| --- | --- |
| B1 | binds |
| B2 | binds |
